The values that follow come from publication PMC12375108, “A repurposed AMP binding domain reveals mitochondrial protein AMPylation as a regulator of cellular metabolism” (Nature Communications, 2025).

In data set [1] the target is T1, AMPylated GlnA (glutamine synthetase), recombinant (E. coli, UniProt P0A9C5 1-469, AMPylated tyrosine at 398 (Tyr398-AMP)).
T1 construct: glutamine synthetase GlnA, cloned in ppSumo; Species is stated for GlnA in general (E. coli), not for the ppSumo construct; also called GlnA-AMP; copies: 12
T1 sequence: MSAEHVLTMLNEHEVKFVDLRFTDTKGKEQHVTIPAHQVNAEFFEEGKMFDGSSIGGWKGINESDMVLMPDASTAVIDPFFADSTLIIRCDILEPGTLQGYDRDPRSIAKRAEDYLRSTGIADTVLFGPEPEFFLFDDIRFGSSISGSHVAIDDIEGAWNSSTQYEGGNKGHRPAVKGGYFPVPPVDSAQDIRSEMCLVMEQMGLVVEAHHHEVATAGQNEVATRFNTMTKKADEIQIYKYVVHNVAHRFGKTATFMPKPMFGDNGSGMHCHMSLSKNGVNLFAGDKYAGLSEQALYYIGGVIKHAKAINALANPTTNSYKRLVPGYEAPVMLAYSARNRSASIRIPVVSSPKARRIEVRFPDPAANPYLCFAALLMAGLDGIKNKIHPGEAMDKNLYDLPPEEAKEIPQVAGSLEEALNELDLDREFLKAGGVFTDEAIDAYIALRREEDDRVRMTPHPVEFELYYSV
Nature of the data set: far-Western, overlay or dot blot; dot blot: 400 ng to 25 ng of AMPylated or non-AMPylated protein spotted on nitrocellulose, probed with GST or GST-hinT at 0.125 μg/mL in TBST for 1 h, detected with α-GST. Particulars: both partners purified.

Another data set addresses T2, AMPylated sucA (UniProt P0AFG3 1-933, multiple AMPylation sites, residues not given).
T2 construct: sucA, model AMPylated substrate of E. coli SelO; also called sucA-AMP; SucA-AMP; source: E. coli BL21, co-expressed with SelO V242A (pETDuet), purified (Ni-NTA)
T2 sequence (looked up): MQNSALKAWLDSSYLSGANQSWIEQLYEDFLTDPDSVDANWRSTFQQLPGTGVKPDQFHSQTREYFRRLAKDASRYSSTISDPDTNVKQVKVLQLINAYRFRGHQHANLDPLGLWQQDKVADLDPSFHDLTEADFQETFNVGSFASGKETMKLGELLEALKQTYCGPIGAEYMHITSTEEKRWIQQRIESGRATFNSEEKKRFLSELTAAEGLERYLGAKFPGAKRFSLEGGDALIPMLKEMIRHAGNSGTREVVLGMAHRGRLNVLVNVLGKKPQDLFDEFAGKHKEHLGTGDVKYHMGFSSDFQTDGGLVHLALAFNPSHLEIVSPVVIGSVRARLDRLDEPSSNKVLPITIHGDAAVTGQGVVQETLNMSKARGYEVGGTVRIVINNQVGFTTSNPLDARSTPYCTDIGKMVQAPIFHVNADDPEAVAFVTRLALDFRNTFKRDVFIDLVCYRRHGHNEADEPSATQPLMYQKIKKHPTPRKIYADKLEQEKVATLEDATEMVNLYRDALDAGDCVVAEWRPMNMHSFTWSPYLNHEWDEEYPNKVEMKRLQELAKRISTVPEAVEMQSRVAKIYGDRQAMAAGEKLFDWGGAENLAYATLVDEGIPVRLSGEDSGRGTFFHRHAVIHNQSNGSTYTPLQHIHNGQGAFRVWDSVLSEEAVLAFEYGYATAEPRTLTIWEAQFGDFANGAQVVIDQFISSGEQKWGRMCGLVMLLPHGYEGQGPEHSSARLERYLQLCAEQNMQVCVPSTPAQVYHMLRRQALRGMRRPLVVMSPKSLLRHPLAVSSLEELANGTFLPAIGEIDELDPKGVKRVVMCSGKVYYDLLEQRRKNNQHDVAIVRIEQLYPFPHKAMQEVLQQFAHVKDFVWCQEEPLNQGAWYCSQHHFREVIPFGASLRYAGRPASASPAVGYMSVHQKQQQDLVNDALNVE
Nature of the data set: BLI; GST-hinT (90 nM) immobilised on anti-GST biosensors; sucA-AMP 500 to 7.81 nM, unmodified sucA at 500 nM; 10 mM Tris pH 8, 150 mM NaCl, 0.1% Triton X-100; KD from steady-state responses, one site. Particulars: both partners purified. A general note: BLI is a label-free optical method that tracks binding on a fibre tip over time.

Data set [2] concerns the molecule itself. Description: cryo-EM structure; GlnA (4.68 mg/ml) mixed with hinT (3.29 mg/ml), 1:3 molar ratio of monomers; 10 mM Tris pH 8, 150 mM NaCl, 2 mM DTT.

B1: GST-tagged E. coli hinT H101N E96S (enzyme, UniProt P0ACE7 1-119, looked up)
chain: MAEETIFSKIIRREIPSDIVYQDDLVTAFRDISPQAPTHILIIPNILIPTVNDVSAEHEQALGRMITVAAKIAEQEGIAEDGYRLIMNTNRHGGQSVYHINMHLLGGRPLGPMLAHKGL
notes: E. coli hinT in pGEX-rTEV, E96S made by site directed mutagenesis on the H101N form; also called GST-Ec hinT^(HN, E96S); GST-Ec hinT^E96S; not shown: GST, N-terminal, kept
A word on the Kd: it is a measure of binding affinity in units of concentration. Lower therefore signals a tighter complex. On to B1, for which, in data set [1], the binding result was “binds”. In the data set with AMPylated sucA, this molecule registered a Kd of 21 nM.

B2: E. coli hinT H101N (untagged) (enzyme, UniProt P0ACE7 1-119, looked up)
chain: MAEETIFSKIIRREIPSDIVYQDDLVTAFRDISPQAPTHILIIPNILIPTVNDVSAEHEQALGRMITVAAKIAEQEGIAEDGYRLIMNTNRHGGQEVYHINMHLLGGRPLGPMLAHKGL
notes: open reading frame cloned into pProEx; ATG replaces the endogenous TTG start codon; also called hinT^HN; source: E. coli BL21, purified (Ni-NTA, TEV cleavage, Superdex 75)
As a reminder, the stoichiometry N is a count of units in the complex or per binding partner. Consider B2, for which, in data set [2], the “stoichiometry N” value stood at 2.
